Percent of translation product recovered with XRCC1-His data for 1 substance are collected here from patent US20010041350A1.

This assay addresses truncated polypeptides of the in vitro translation of the DNA ligase III cDNA. Put plainly: pull-down: XRCC1-His incubated with [35S]methionine-labeled in vitro translation product, captured on NTA-agarose beads, eluted with 200 mM imidazole.

A value given as a limit tells only on which side of the number the result lay.

In the case of “Histidine-tagged recombinant XRCC1 protein (from UniProt P18887 1-633)”, the percent of translation product recovered with XRCC1-His was less than 90%.
